Source: patent US20220112262A1 (CASE WESTERN RESERVE UNIVERSITY, published 2022)

Target: T1, FLAG epitope-tagged holoreceptor of human type 1 insulin-like growth factor receptor (hIGFR) (human, UniProt P08069 31-1367)
T1 construct: The holoreceptor was captured on 96 well plates coated with anti-FLAG monoclonal antibody; also called IGF-R1; IGF-1R
Assay: competitive displacement of 125I-labeled human insulin from plate-captured FLAG-tagged hIGFR

T1 sequence (P08069 31-1367 limits assumed): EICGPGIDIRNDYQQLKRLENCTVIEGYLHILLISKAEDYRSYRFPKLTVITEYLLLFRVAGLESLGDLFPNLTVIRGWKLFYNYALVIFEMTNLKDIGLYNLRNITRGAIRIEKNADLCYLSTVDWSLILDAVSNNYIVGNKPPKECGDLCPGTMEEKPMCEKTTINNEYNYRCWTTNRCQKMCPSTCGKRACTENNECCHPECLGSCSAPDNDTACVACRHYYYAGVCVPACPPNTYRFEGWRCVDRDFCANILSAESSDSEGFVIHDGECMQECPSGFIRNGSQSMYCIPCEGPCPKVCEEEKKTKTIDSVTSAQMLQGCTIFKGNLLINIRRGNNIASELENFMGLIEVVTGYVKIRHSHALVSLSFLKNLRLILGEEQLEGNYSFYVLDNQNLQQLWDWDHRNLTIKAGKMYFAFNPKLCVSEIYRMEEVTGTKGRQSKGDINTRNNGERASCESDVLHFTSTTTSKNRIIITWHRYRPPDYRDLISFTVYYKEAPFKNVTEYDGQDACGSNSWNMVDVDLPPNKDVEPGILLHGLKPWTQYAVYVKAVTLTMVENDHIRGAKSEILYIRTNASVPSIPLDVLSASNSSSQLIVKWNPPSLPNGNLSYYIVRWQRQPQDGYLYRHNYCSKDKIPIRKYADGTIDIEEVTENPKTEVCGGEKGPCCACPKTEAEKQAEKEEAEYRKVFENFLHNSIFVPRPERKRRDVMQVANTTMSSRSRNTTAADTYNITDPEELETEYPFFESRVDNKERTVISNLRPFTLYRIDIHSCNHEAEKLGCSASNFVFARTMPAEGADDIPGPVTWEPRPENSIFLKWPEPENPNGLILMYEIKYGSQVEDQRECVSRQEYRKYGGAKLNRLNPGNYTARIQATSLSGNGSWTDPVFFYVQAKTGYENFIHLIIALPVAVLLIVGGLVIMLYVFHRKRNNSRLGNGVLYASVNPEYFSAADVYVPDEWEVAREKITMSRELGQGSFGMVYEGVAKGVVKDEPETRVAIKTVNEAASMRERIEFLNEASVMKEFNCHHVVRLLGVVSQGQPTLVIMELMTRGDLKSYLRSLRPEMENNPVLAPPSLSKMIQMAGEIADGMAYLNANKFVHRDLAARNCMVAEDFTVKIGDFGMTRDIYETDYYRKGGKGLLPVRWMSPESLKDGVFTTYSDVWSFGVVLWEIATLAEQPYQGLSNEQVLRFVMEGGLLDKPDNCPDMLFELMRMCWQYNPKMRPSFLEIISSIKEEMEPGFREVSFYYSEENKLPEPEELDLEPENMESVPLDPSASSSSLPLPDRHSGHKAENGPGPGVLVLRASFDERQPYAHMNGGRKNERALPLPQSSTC

Binding Affinity: 0.16
IGF1-R (Rel. Aff.), relative to insulin lispro: 18%
B1: des-[B1, B2], Glu^B3, His^A8, Glu^A14, Gln^A17, des-B30-insulin (T-0706) (ligand)
chain 1: GIVEQCCHSICSLEQLQNYCN
chain 2: EQHLCGSHLVEALYLVCGERGFFYTPK
modifications: not fully specified
notes: Formulated without zinc; also called HA8 EA14 QA17 des[B1-B2]; EB3 desB30
